Measured values as given in publication PMC10287982.

What was measured:
[1] = target: 70S ribosome on biotinylated mRNA with the UAA stop codon in the A site (no release factor bound) (E. coli) (UniProt P0AG67); assay: single-molecule fluorescence in zero-mode waveguides (factor occupancy with intersubunit FRET); ribosome immobilised through biotinylated MF-UAA mRNA on Neutravidin; Cy5.5-RF1 or Cy5.5-RF2 with 0-200 nM dark RF3, RRF, EF-G, 4 mM GTP; Tris-based polymix buffer pH 7.5; 20°C
[2] = target: 70S ribosome with bound wild-type (dark) RF3, rotated post-termination state (E. coli MG1655 K12 | E. coli) (UniProt P0A7I4); assay: as above
[3] = target: 70S ribosome on biotinylated mRNA with the UAA stop codon in the A site (no release factor bound) (E. coli) (UniProt P0AG67); assay: single-molecule fluorescence in zero-mode waveguides (factor occupancy with intersubunit FRET); as a1 with Cy5.5-RF1 and dark RF3, 4 mM GTP, but at 30°C
[4] = target: 70S ribosome with bound wild-type (dark) RF3, rotated post-termination state (E. coli MG1655 K12 | E. coli) (UniProt P0A7I4); assay: as above
[5] = target: 70S ribosome with bound Cy5-RF3, rotated post-termination state (E. coli MG1655 K12 | E. coli) (UniProt P0A7I4); assay: single-molecule fluorescence in zero-mode waveguides (factor occupancy with intersubunit FRET); as a4 (MF-UAA mRNA, Cy5.5-RF1, Cy5-RF3, GTP) but at 12°C
[6] = target: 70S ribosome with bound Cy5-RF3, rotated post-termination state (E. coli MG1655 K12 | E. coli) (UniProt P0A7I4); assay: single-molecule fluorescence in zero-mode waveguides (factor occupancy with intersubunit FRET); ribosome immobilised through biotinylated mRNA; Cy5.5-RF1 and Cy5-RF3 tracked together, 4 mM GTP, Tris-based polymix buffer pH 7.5, 20°C
[7] = target: 70S ribosome on biotinylated mRNA with the UAA stop codon in the A site (no release factor bound) (E. coli) (UniProt P0AG67); assay: single-molecule fluorescence in zero-mode waveguides (factor occupancy with intersubunit FRET); Cy5.5-RF1 and Cy5-RF3 with GTP and the antimicrobial peptide Api137 added; occupancy limited by Cy5.5 photobleaching and movie time (6 min)
[8] = target: 70S ribosome with bound Cy5-RF3, rotated post-termination state (E. coli MG1655 K12 | E. coli) (UniProt P0A7I4); assay: single-molecule fluorescence in zero-mode waveguides (factor occupancy with intersubunit FRET); pre-elongated immobilised 70S with the stop codon in the A site; 75 nM Cy5-RF3, 20 nM Cy5.5-RF1, 4 mM GDPCP, polymix buffer, 20°C, no RRF or EF-G
[9] = target: 70S ribosome on biotinylated mRNA with the UAA stop codon in the A site (no release factor bound) (E. coli) (UniProt P0AG67); assay: single-molecule fluorescence in zero-mode waveguides (factor occupancy with intersubunit FRET); Cy5.5-RF1 in the absence of RRF, with and without RF3; first-bound and rebound RF1 events on the immobilised ribosome (Supplementary Figure S2); temperature not given
[10] = target: 70S ribosome with bound wild-type (dark) RF3, rotated post-termination state (E. coli MG1655 K12 | E. coli) (UniProt P0A7I4); assay: as above
[11] = target: 70S ribosome on biotinylated mRNA with the UAA stop codon in the A site (no release factor bound) (E. coli) (UniProt P0AG67); assay: single-molecule fluorescence in zero-mode waveguides (factor occupancy with intersubunit FRET); as a4 (MF-UAA mRNA, Cy5.5-RF1, Cy5-RF3, GTP) but at 12°C
[12] = target: post-termination RF1-70S complex (Cy5.5-RF1 bound to the non-rotated 70S ribosome) (not stated | E. coli) (UniProt P0A7I0); assay: single-molecule fluorescence in zero-mode waveguides (factor occupancy with intersubunit FRET); Cy5-RF3 occupancy on the Cy5.5-RF1-bound non-rotated ribosome with 50% GDP (1:1 ratio of GTP:GDP); triple exponential fit
[13] = target: post-termination RF1-70S complex (Cy5.5-RF1 bound to the non-rotated 70S ribosome) (not stated | E. coli) (UniProt P0A7I0); assay: single-molecule fluorescence in zero-mode waveguides (factor occupancy with intersubunit FRET); pre-elongated immobilised 70S with the stop codon in the A site; 75 nM Cy5-RF3, 20 nM Cy5.5-RF1, 4 mM GDP, polymix buffer, 20°C
[14] = target: 70S ribosome on biotinylated mRNA with the UAA stop codon in the A site (no release factor bound) (E. coli) (UniProt P0AG67); assay: single-molecule fluorescence in zero-mode waveguides (factor occupancy with intersubunit FRET); ribosome immobilised through biotinylated mRNA; Cy5.5-RF1 and Cy5-RF3 tracked together, 4 mM GTP, Tris-based polymix buffer pH 7.5, 20°C
[15] = target: post-termination RF1-70S complex (Cy5.5-RF1 bound to the non-rotated 70S ribosome) (not stated | E. coli) (UniProt P0A7I0); assay: as above
[16] = target: 70S ribosome on biotinylated mRNA with the UAA stop codon in the A site (no release factor bound) (E. coli) (UniProt P0AG67); assay: single-molecule fluorescence in zero-mode waveguides (factor occupancy with intersubunit FRET); pre-elongated immobilised 70S with the stop codon in the A site; 75 nM Cy5-RF3, 20 nM Cy5.5-RF1, 4 mM GDPCP, polymix buffer, 20°C, no RRF or EF-G
[17] = target: post-termination RF1-70S complex (Cy5.5-RF1 bound to the non-rotated 70S ribosome) (not stated | E. coli) (UniProt P0A7I0); assay: as above

Which results are given for “Cy5.5-labeled RF2 (from UniProt P07012 1-365) (natural protein)”?
kiAR- (spontaneous and simultaneous dissociation and ribosome rotation from the post-termination ribosome) [1]: 0.04 s⁻¹; mean dwell time on the terminating ribosome in the absence of RF3 (tau 2BD-) [1]: 38 s; koff [2]: 3.5 s⁻¹

With “Cy5.5-labeled RF1 (from UniProt P0A7I0 1-360) (natural protein)” as the substance, how does the kiAR- (spontaneous and simultaneous dissociation and ribosome rotation from the post-termination ribosome) [3] read?
The kiAR- (spontaneous and simultaneous dissociation and ribosome rotation from the post-termination ribosome) was 0.072 s⁻¹.

What about the koff [4] of the same substance?
The koff was 2.5 s⁻¹.

What about the fold slow-down of dissociation at 12°C against 20°C [5] of the same substance?
Its fold slow-down of dissociation at 12°C against 20°C is 2.6 fold.

What about the koff [6] of the same substance?
The koff was 0.69 s⁻¹.

What about the occupancy time with Api137 (photobleaching and movie-time limit) [7] of the same substance?
The occupancy time with Api137 (photobleaching and movie-time limit) was 300 s.

And the koff [8]?
Its koff is 0.14 s⁻¹.

What about the kiAR- (spontaneous and simultaneous dissociation and ribosome rotation from the post-termination ribosome) [1] of the same substance?
Its kiAR- (spontaneous and simultaneous dissociation and ribosome rotation from the post-termination ribosome) is 0.027 s⁻¹.

What about the kon [1] of the same substance?
The kon was 2.1e+07 M⁻¹ s⁻¹.

What about the mean dwell time on the terminating ribosome in the absence of RF3 (tau 1BD-) [1] of the same substance?
Its mean dwell time on the terminating ribosome in the absence of RF3 (tau 1BD-) is 66 s.

What about the k1RD+ (single RF1 binding event in the presence of RRF) [2] of the same substance?
The k1RD+ (single RF1 binding event in the presence of RRF) was 0.87 s⁻¹.

What about the koff [2] of the same substance?
Its koff is 0.76 s⁻¹.

And the kiAR- (first-bound ribosomes, no RRF) [9]?
The kiAR- (first-bound ribosomes, no RRF) was 0.04 s⁻¹.

And the kiAR- (rebound ribosomes, no RRF) [9]?
Its kiAR- (rebound ribosomes, no RRF) is 0.08 s⁻¹.

What about the k1RD+ (first-bound RF1, no RRF) [10] of the same substance?
The k1RD+ (first-bound RF1, no RRF) was 0.77 s⁻¹.

What about the k1RD+ (rebound RF1, no RRF) [10] of the same substance?
Its k1RD+ (rebound RF1, no RRF) is 1 s⁻¹.

Which fold slow-down of dissociation at 12°C against 20°C [11] does the source give for “Cy5-RF3 (ybbR-tagged RF3 labelled with Cy5-CoA) (from UniProt P0A7I4 1-529) (natural protein)” here?
Its fold slow-down of dissociation at 12°C against 20°C is 21 fold.

And the dissociation rate of the slowest phase of a triple exponential [12]?
The dissociation rate of the slowest phase of a triple exponential was 0.3 s⁻¹.

And the k3off1 (sampling mode, fast phase of a double exponential) [13]?
The k3off1 (sampling mode, fast phase of a double exponential) was 4.6 s⁻¹.

And the k3off2 (sampling mode, slow phase of a double exponential) [13]?
The k3off2 (sampling mode, slow phase of a double exponential) was 0.25 s⁻¹.

And the kon [13]?
The kon was 2e+06 M⁻¹ s⁻¹.

What about the koff [14] of the same substance?
The koff was 4 s⁻¹.

What about the k3off1 (sampling mode, fast phase of a double exponential) [15] of the same substance?
The k3off1 (sampling mode, fast phase of a double exponential) was 1.3 s⁻¹.

And the k3off2 (sampling mode, slow phase of a double exponential) [15]?
Its k3off2 (sampling mode, slow phase of a double exponential) is 0.3 s⁻¹.

What about the kon [15] of the same substance?
Its kon is 2.3e+06 M⁻¹ s⁻¹.

What about the koff [16] of the same substance?
Its koff is 0.0164 s⁻¹.

What about the k3off1 (sampling mode, fast phase of a double exponential) [17] of the same substance?
Its k3off1 (sampling mode, fast phase of a double exponential) is 1.1 s⁻¹.

And the k3off2 (sampling mode, slow phase of a double exponential) [17]?
Its k3off2 (sampling mode, slow phase of a double exponential) is 0.18 s⁻¹.

And the kon [17]?
Its kon is 2e+06 M⁻¹ s⁻¹.
